In patent publication US20260001947A1:

Biological target: human PD-L1 extracellular domain protein displayed on the membrane of MC38-PD-L1 cells (human) (UniProt Q9NZQ7)
Assay: flow cytometry on MC38-PD-L1 cells, directly PE-labelled antibody, 0.5 µl; Blank-PE shows 0.13% in the same gate

human PD-L1 extracellular domain protein displayed on the membrane of MC38-PD-L1 cells (human), sequence (Q9NZQ7 19-238): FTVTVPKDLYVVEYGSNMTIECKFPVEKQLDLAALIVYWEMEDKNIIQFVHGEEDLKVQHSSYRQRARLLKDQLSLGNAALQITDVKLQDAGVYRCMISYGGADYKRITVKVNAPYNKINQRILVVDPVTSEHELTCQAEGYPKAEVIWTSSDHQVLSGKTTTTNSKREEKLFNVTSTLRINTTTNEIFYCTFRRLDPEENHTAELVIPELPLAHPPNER

% of cells in gate M6-2: 99.4%
Substance: PE anti-human PD-L1 (BioLegend, clone number: 29E-2A3) (antibody)
